Patent US20200332015A1 (NAMAB THERAPEUTICS, published 2020)
Each block holds one binder with its values, some of them ahead of it.

Assays:
[1] = target: cynomolgus PDL1-Fc chimeric protein (cynomolgus, UniProt G7PSE7 19-238); experiment: SPR T200, antigen-Fc captured, molecule as analyte
Procedure, shortened: (§1)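 Biacore T200: anti-Fc antibody amine-coupled on CM5 chip captures chimeras of different species. Molecules injected as three-fold dilutions (0.12-90 nM) for 3 min, dissociation 10 min, 3 M MgCl₂ regeneration. Apparent ka, kd and KD from 1:1 Langmuir fit.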

[2] = target: human PDL1-Fc chimeric protein (human, UniProt Q9NZQ7 19-238, limits assumed); experiment: SPR T200, antigen-Fc captured, molecule as analyte
Procedure, shortened: as §1

[3] = target: human PDL1 on cells (antigen-presenting cells and T cells of SEA stimulated human PBMC) (human, UniProt Q9NZQ7 19-290); experiment: cell-based or functional assay
[4] = target: T1, Fc tagged human CD137 (R&D Systems, cat. 838-4B-100) (human, UniProt Q07011 24-186); experiment: SPR T200, antigen-Fc captured, molecule as analyte
T1 construct: also called CD137 Fc chimera; human CD137-Fc chimeric protein
Procedure, shortened: as §1

[5] = target: T2, cynomolgus monkey Fc-tagged CD137 (R&D Systems, cat. 9324-4B-100) (cynomolgus monkey, UniProt A9YYE7 24-186); experiment: SPR T200, antigen-Fc captured, molecule as analyte
T2 construct: also called cynomolgus CD137-Fc chimeric protein
Procedure, shortened: as §1

[6] = target: T3, mouse Fc-tagged mouse CD137 (R&D Systems, cat. 937-4B-050) (mouse, UniProt P20334 24-187); experiment: SPR T200, antigen-Fc captured, molecule as analyte
T3 construct: also called mouse CD137-Fc chimeric protein
T3 sequence (looked up): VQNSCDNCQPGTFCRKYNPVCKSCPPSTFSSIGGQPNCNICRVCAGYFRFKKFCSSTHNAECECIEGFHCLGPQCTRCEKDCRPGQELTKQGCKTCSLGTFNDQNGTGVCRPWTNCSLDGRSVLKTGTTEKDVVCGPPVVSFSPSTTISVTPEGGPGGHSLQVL
Procedure, shortened: as §1

[7] = target: T4, human CD137 expressed on Jurkat cells (human, UniProt Q07011 24-255); experiment: cell-based or functional assay
[8] = target: T1, Fc tagged human CD137 (R&D Systems, …); experiment: SPR T200, antigen-Fc captured, molecule as analyte; remark: listed apart in the source
[9] = target: T4, human CD137 expressed on Jurkat cells; experiment: cell-based or functional assay; remark: listed apart in the source
[10] = target: T4, human CD137 expressed on Jurkat cells; experiment: cell-based or functional assay; remark: listed apart in the source
[11] = target: T4, human CD137 expressed on Jurkat cells; experiment: cell-based or functional assay; remark: listed apart in the source
[12] = target: T4, human CD137 expressed on Jurkat cells; experiment: flow cytometry on CD137 expressing Jurkat cells
Description: (§2) Binding potency affinity to human CD137 expressing cells was also determined for selected scFvs. 50,000 CD137 expressing Jurkat cells (or as reference cell line Jurkat NFAT) were distributed to round bottom non-tissue culture treated 96 well plates. Cells were washed twice with 100 μl PBS by centrifugation at 400×g for 5 min. […] After 1 h incubation at 4° C. on a nutating mixer, cells were washed 3 times with 100 μl staining buffer and centrifugation steps of 5 min at 400×g. […] Plates were incubated 1 h at 4° C. on a nutating mixer, then washed 3 times with 100 μl of staining buffer and resuspended in a final volume of 50 μl of staining buffer. Finally, APC signal of 20,000 events per well was analyzed by flow cytometry using a Novocyte flow cytometer system (ACEA Bioscience).

[13] = target: T4, human CD137 expressed on Jurkat cells; experiment: flow cytometry on CD137 expressing Jurkat cells, protein L-APC
Description: as §2

[14] = target: T5, human Fc-tagged CD40 (AcroBiosystems, cat. CDO-H5253) (human, UniProt P25942 21-193); experiment: SPR T200, Fc-tagged CD40 captured, scFv analyte
T5 construct: also called human CD40
Description: (§3) In addition to cross-reactivity to cynomolgus monkey CD137, selectivity of binding of the anti-human CD137 scFvs to human CD137 and not to other members of the TNFR superfamily, such as CD40 and OX40, is desired. Therefore, binding of selected scFvs to human CD40 and OX40 was tested. Binding of scFvs to human Fc-tagged CD40 (AcroBiosystems, cat. CDO-H5253) and human Fc-tagged OX40 (Acro-Biosystems, cat. OXO-H5255) was determined by SPR analysis on a T200 device (Biacore, GE Healthcare). In this experiment, Fc-tagged CD40 and OX40 were captured using the Human Antibody Capture kit from GE healthcare (cat. BR-1008-39). After each analyte injection cycle, the anti-human Fc-specific IgG was regenerated and new antigen was captured. The scFvs were injected as analyte using a high concentration of 180 nM of the analyte diluted in running buffer. Association and dissociation time were set to 300 s and 720 s, respectively. Obtained sensorgrams were fitted using the 1:1 binding model.

[15] = target: T3, mouse Fc-tagged mouse CD137 (R&D …); experiment: SPR T200, Fc-tagged antigen captured, scFv analyte
[16] = target: T1, Fc tagged human CD137 (R&D Systems, …); experiment: SPR T200, Fc-tagged antigen captured, scFv analyte
Description: (§4) Affinity of the humanized scFvs to human CD137 was determined by SPR analysis on a T200 device (Biacore, GE Healthcare). […] After each analyte injection cycle, the anti-human Fc-specific IgG was regenerated and new antigen was captured. The scFvs were injected as analyte using a dose response multi-cycle kinetic assay over the captured CD137 with concentrations of the analyte ranging from 0.19 to 45 nM (three-fold dilutions steps) diluted in running buffer. Association and dissociation time were set to 300 s and 720 s, respectively. Obtained sensorgrams were fitted using the 1:1 binding model.

[17] = target: T2, cynomolgus monkey Fc-tagged CD137 (R&D …); experiment: SPR T200, Fc-tagged antigen captured, scFv analyte
Description: as §4
Cross-reactivity to cynomolgus CD137 was measured with cynomolgus monkey Fc-tagged CD137 (R&D Systems, cat. 9324-4B-100) in a similar assay as used to measure binding to human CD137.

[18] = target: T6, human Fc-tagged OX40 (Acro-Biosystems, cat. OXO-H5255) (human, UniProt P43489 29-216, limits assumed); experiment: SPR T200, Fc-tagged OX40 captured, scFv analyte
T6 construct: also called human OX40
T6 sequence (looked up): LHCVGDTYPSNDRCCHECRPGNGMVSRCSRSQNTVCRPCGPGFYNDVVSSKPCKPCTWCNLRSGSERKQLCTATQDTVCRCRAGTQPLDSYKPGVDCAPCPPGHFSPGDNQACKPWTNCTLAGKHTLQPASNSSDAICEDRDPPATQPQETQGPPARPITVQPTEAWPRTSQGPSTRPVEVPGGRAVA
Description: as §3

T2 sequence (A9YYE7 entry or part of it): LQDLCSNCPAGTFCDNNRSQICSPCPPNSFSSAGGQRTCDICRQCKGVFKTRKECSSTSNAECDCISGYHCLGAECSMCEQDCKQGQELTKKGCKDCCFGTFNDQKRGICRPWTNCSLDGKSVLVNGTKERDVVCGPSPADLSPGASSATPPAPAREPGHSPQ
Chain of cynomolgus PDL1-Fc chimeric protein (G7PSE7 entry or part of it mutant): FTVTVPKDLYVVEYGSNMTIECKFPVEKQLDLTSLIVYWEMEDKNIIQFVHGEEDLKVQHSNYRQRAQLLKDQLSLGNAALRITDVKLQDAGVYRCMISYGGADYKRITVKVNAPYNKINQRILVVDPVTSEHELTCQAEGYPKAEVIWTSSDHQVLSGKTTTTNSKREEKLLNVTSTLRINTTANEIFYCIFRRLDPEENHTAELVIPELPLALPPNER
T5 sequence (P25942 21-193 limits assumed): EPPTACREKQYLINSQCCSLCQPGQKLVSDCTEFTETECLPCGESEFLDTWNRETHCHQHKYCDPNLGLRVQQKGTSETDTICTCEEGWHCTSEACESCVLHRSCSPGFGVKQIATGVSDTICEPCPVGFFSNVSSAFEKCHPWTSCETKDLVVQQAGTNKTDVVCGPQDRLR

Kd [1]: < 0.00167 nM | koff [1]: < 1e-05 s⁻¹ | kon [1]: 6e+06 M⁻¹ s⁻¹ | Kd [2]: ≤ 0.0017 nM | koff [2]: < 1e-05 s⁻¹ | kon [2]: 5.9e+06 M⁻¹ s⁻¹ | EC50 of IL-2 secretion, SEA stimulated PBMC, 96 h [3]: 40.9 ng/mL
B1: PRO997 (37-20-B03 CDR, scFv) (scFv)
scFv: DIQMTQSPSSLSASVGDRVTITCQASQSIGTYLAWYQQKPGKAPKLLIYRAFILASGVPSRFSGSGSGTDFTLTISSLQPEDFATYYCQSNFYSDSTTIGPNAFGTGTKVTVLGGGGGSGGGGSGGGGSGGGGSQVQLQESGPGLVKPSETLSLTCKVSGFSFNSDYWIYWIRQPPGKGLEWIGSIYGGSSGNTQYASWAQGRVTISVDSSKNQFSLKLSSVTAADTAVYYCARGYVDYGGATDLWGQGTLVTVSS
notes: also called anti-PDL1 scFv PRO997

Kd [4]: ≤ 0.015 nM | koff [4]: < 1e-05 s⁻¹ | kon [4]: 680000 M⁻¹ s⁻¹ | Kd [5]: 0.59 nM | koff [5]: 0.00033 s⁻¹ | kon [5]: 560000 M⁻¹ s⁻¹ | Kd [6]: 11 nM | koff [6]: 0.0022 s⁻¹ | kon [6]: 200000 M⁻¹ s⁻¹ | Kd [2]: 0.067 nM | koff [2]: 0.0002 s⁻¹ | kon [2]: 3.1e+06 M⁻¹ s⁻¹ | EC50 NFkB-luciferase, HCC827 without IFNy [7]: 5.62 ng/mL | Top of curve fit, NFkB-luciferase, HCC827 without IFNy [7]: 113 | fold improvement of affinity against PRO885 [8]: > 200 fold | max. activation, HCC827 +IFNg [9]: 188% | max. activation, HCC827 -IFNg [9]: 113% | max. activation, NF-kB reporter gene, CHO-PD-L1 [9]: 229% | rel. IC50 (urelumab/test), HCC827 +IFNg [9]: 22.4 ratio | rel. IC50 (urelumab/test), HCC827 -IFNg [9]: 19.9 ratio | rel. IC50 (urelumab/test), NF-kB reporter gene, CHO-PD-L1 [9]: 23.5 ratio | EC50 NFkB-luciferase, HCC827 with IFNy [10]: 4.83 ng/mL | Top of curve fit, NFkB-luciferase, HCC827 with IFNy [10]: 188 | EC50 NFkB-luciferase, CHO-PDL1 cells [11]: 3.68 ng/mL | Top of curve fit, NFkB-luciferase, CHO-PDL1 cells [11]: 229
B2: PRO1124 (38-02-A04 sc06 Full scDb-i/33_03_G02 scDb-o) (bispecific antibody)
chain: DIQMTQSPSSLSASVGDRVTITCQASQSINDYLAWYQQKPGKAPKLLIYKASTLASGVPSRFSGSGSGTDFTLTISSLQPEDFATYYCQQGYIITDIDNVFGTGTKVTVLGGGGGSQVQLQESGPGLVKPSETLSLTCKASGFSFSNSYWICWVRQPPGKGLEWIGCTFVGSSDSTYYANWAKGRVTISKDSSKNQVSLKLSSVTAADTAVYFCARHPSDAVYGYANNLWGQGTLVTVSSGGGGSGGGGSGGGGSGGGGSLQMTQSPSSLSASVGDRVTITCQASQSINNVLAWYQQKPGKPPKLLIYRASTLASGVPSRFSGSGSGTDFTLTISSLQPEDFATYYCQSSYGNYGDFGTGTKVTVLGGGGGSQVQLQESGPGLVKPSETLSLTCKVSGFSFSSGYDMCWIRQPPGKGLEWIGCVVAGSVDITYYASWAKGRVTISVDSSKNQFSLKLSSVTAADTAVYYCARKDAYSDAFNLWGQGTLVTVSS
notes: scDb; also called PR01124

Maximum binding (relative to urelumab) [12]: 10% | rel. EC50 (EC50, urelumab/EC50, scFv) [12]: 0.057 ratio | EC50 [13]: 1100 ng/mL | binding result [14]: no binding (tested: 180 nM) | binding result [15]: no binding | Kd [16]: 1.47 nM | koff [16]: 0.00103 s⁻¹ | kon [16]: 701000 M⁻¹ s⁻¹ | Kd [17]: 1.47 nM | koff [17]: 0.00102 s⁻¹ | kon [17]: 695000 M⁻¹ s⁻¹ | binding result [18]: no binding (tested: 180 nM)
B3: PRO1352 (38-02-A04 sc13, CDR graft with interdomain disulfide, VH3, scFv) (scFv)
scFv: DIQMTQSPSSLSASVGDRVTITCQASQSINNVLAWYQQKPGKAPKLLIYRASTLASGVPSRFSGSGSGTDFTLTISSLQPEDFATYYCQSSYGNYGDFGCGTKVTVLGGGGGSGGGGSGGGGSGGGGSEVQLVESGGGLVQPGGSLRLSCAASGFSFSNSYWICWVRQAPGKCLEWIGCTFVGSSDSTYYANWAKGRFTISRDNSKNTVYLQMNSLRAEDTAVYYCARHPSDAVYGYANNLWGQGTLVTVSS
notes: VL-linker-VH; carries VH G51C and VL T141C (AHo numbering); also called the scFv based on 38-02-A04 clone
